B1: P217C|V226C, O00095 (parent)
chain: MKFLQVLPALIPAALAQTSCDQWATFTGNGYTVSNNLWGASAGSGFGCVTAVSLSGGASWHADWQWSGGQNNVKSYQNSQIAIPQKRTVNSISSMPTTASWSYSGSNIRANVAYDLFTAANPNHVTYSGDYELMIWLGKYGDIGPIGSSQGTVNVGGQSWTLYYGYNGAMQVYSFVAQTNTTNYSGDVKNFFNYLRDNKGYNAAGQYVLSYQFGTEPFTGSGTLNVASWTASIN
B2: C236P, Q8NJY3 (parent)
chain: MLKSALLLGAAAVSVQSASIPTIPANLEPRQIRSLCELYGYWSGNGYELLNNLWGKDTATSGWQCTYLDGTNNGGIQWSTAWEWQGAPDNVKSYPYVGKQIQRGRKISDINSMRTSVSWTYDRTDIRANVAYDVFTARDPDHPNWGGDYELMIWLARYGGIYPIGTFHSQVNLAGRTWDLWTGYNGNMRVYSFLPPSGDIRDFSCDIKDFFNYLERNHGYPAREQNLIVYQVGTECFTGGPARFTCRDFRADLW

Tests used:
[1] = variants of: B1; conditions: Hypocrea jecorina; pH 8; Thermal; CD; Bis-Tris propane ammonium acetate 0.05 M 0.05 M; reversible: No; structure 1H8V; whole UniProt chain shown
[2] = variants of: B2; conditions: Trichocladium griseum; pH 8; Thermal; CD; Bis-Tris propane ammonium acetate 0.05 M 0.05 M; reversible: No; structure 1OLR; whole UniProt chain shown

| Variant | Tm [1] | change of melting temperature, mutant - wild type (higher = more stable) [1] | Tm [2] | change of melting temperature, mutant - wild type (higher = more stable) [2] |
| --- | --- | --- | --- | --- |
| MKFLQVLPALIPAALAQTSCDQWATFTGNGYTVSNNLWGASAGSGFGCVTAVSLSGGASWHADWQWSGGQNNVKSYQNSQIAIPQKRTVNSISSMPTTASWSYSGSNIRANVAYDLFTAANPNHVTYSGDYELMIWLGKYGDIGPIGSSQGTVNVGGQSWTLYYGYNGAMQVYSFVAQTNTTNYSGDVKNFFNYLRDNKGYNAAGQYVLSYQFGTECFTGSGTLNCASWTASIN [P217C V226C] | 55.1 °C | 0.7 °C |  |  |
| MKFLQVLPALIPAALAQTSCDQWATFTGNGYTVSNNLWGASAGSGFGCVTAVSLSGGASWHADWQWSGGQNNVKSYQNSQIAIPQKRTVNSISSMPTTASWSYSGSNIRANVAYDLFTAANPNHVTYSGDYELMIWLGKYGDIGPIGSSQGTVNVGGQSWTLYYGYNGAMQVYSFVAQTNTTNYSGDVKNFFNYLRDNKGYNAAGQYVLSYQFGTEPFTGSGTLNCASWTASIN [V226C] | 54.5 °C | 0.1 °C |  |  |
| MKFLQVLPALIPAALAQTSCDQWATFTGNGYTVSNNLWGASAGSGFGCVTAVSLSGGASWHADWQWSGGQNNVKSYQNSQIAIPQKRTVNSISSMPTTASWSYSGSNIRANVAYDLFTAANPNHVTYSGDYELMIWLGKYGDIGPIGSSQGTVNVGGQSWTLYYGYNGAMQVYSFVAQTNTTNYSCDVKNFFNYLRDNKGYNAAGQYVLSYQFGTECFTGSGTLNCASWTASIN [P217C V226C G186C] | 54.5 °C | 0.1 °C |  |  |
| MKFLQVLPALIPAALAQTSCDQWATFTGNGYTVSNNLWGASAGSGFGCVTAVSLSGGASWHADWQWSGGQNNVKSYQNSQIAIPQKRTVNSISSMPTTASWSYSGSNIRANVAYDLFTAANPNHVTYSGDYELMIWLGKYGDIGPIGSSQGTVNVGGQSWTLYYGYNGAMQVYSFVAQTNTTNYSCDVKNFFNYLRDNKGYNAAGQYVLSYQFGTECFTGSGTLNVASWTASIN [G186C P217C] | 55.1 °C | 0.7 °C |  |  |
| MKFLQVLPALIPAALAQTSCDQWATFTGNGYTVSNNLWGASAGSGFGCVTAVSLSGGASWHADWQWSGGQNNVKSYQNSQIAIPQKRTVNSISSMPTTASWSYSGSNIRANVAYDLFTAANPNHVTYSGDYELMIWLGKYGDIGPIGSSQGTVNVGGQSWTLYYGYNGAMQVYSFVAQTNTTNYSCDVKNFFNYLRDNKGYNAAGQYVLSYQFGTEPFTGSGTLNVASWTASIN [G186C] | 56.5 °C | 2.1 °C |  |  |
| MKFLQVLPALIPAALAQTSCDQWATFTGNGYTVSNNLWGASAGSGFGCVTAVSLSGGASWHADWQWSGGQNNVKSYQNSQIAIPQKRTVNSISSMPTTASWSYSGSNIRANVAYDLFTAANPNHVTYSGDYELMIWLGKYGDIGPIGSSQGTVNVGGQSWTLYYGYNGAMQVYSFVAQTNTTNYSGDVKNFFNYLRDNKGYNAAGQYVLSYQFGTECFTGSGTLNVASWTASIN [P217C] | 58.3 °C | 3.9 °C |  |  |
| MLKSALLLGAAAVSVQSASIPTIPANLEPRQIRSLCELYGYWSGNGYELLNNLWGKDTATSGWQCTYLDGTNNGGIQWSTAWEWQGAPDNVKSYPYVGKQIQRGRKISDINSMRTSVSWTYDRTDIRANVAYDVFTARDPDHPNWGGDYELMIWLARYGGIYPIGTFHSQVNLAGRTWDLWTGYNGNMRVYSFLPPSGDIRDFSCDIKDFFNYLERNHGYPAREQNLIVYQVGTEPFTGGPARFTCRDFRADLW [C236P] |  |  | 59.5 °C | -9.2 °C |
| MLKSALLLGAAAVSVQSASIPTIPANLEPRQIRSLCELYGYWSGNGYELLNNLWGKDTATSGWQCTYLDGTNNGGIQWSTAWEWQGAPDNVKSYPYVGKQIQRGRKISDINSMRTSVSWTYDRTDIRANVAYDVFTARDPDHPNWGGDYELMIWLARYGGIYPIGTFHSQVNLAGRTWDLWTGYNGNMRVYSFLPPSGDIRDFSCDIKDFFNYLERNHGYPAREQNLIVYQVGTESFTGGPARFTCRDFRADLW [C236S] |  |  | 63.3 °C | -5.4 °C |
| MLKSALLLGAAAVSVQSASIPTIPANLEPRQIRSLCELYGYWSGNGYELLNNLWGKDTATSGWQCTYLDGTNNGGIQWSTAWEWQGAPDNVKSYPYVGKQIQRGRKISDINSMRTSVSWTYDRTDIRANVAYDVFTARDPDHPNWGGDYELMIWLARYGGIYPIGTFHSQVNLAGRTWDLWTGYNGNMRVYSFLPPSGDIRDFSGDIKDFFNYLERNHGYPAREQNLIVYQVGTECFTGGPARFTCRDFRADLW [C205G] |  |  | 69.9 °C | 1.2 °C |
| MLKSALLLGAAAVSVQSASIPTIPANLEPRQIRSLCELYGYWSGNGYELLNNLWGKDTATSGWQCTYLDGTNNGGIQWSTAWEWQGAPDNVKSYPYVGKQIQRGRKISDINSMRTSVSWTYDRTDIRANVAYDVFTARDPDHPNWGGDYELMIWLARYGGIYPIGTFHSQVNLAGRTWDLWTGYNGNMRVYSFLPPSGDIRDFSSDIKDFFNYLERNHGYPAREQNLIVYQVGTECFTGGPARFTCRDFRADLW [C205S] |  |  | 68.9 °C | 0.2 °C |
| MLKSALLLGAAAVSVQSASIPTIPANLEPRQIRSLCELYGYWSGNGYELLNNLWGKDTATSGWQCTYLDGTNNGGIQWSTAWEWQGAPDNVKSYPYVGKQIQRGRKISDINSMRTSVSWTYDRTDIRANVAYDVFTARDPDHPNWGGDYELMIWLARYGGIYPIGTFHSQVNLAGRTWDLWTGYNGNMRVYSFLPPSGDIRDFSCDIKDFFNYLERNHGYPAREQNLIVYQVGTECFTGGPARFTSRDFRADLW [C246S] |  |  | 63.1 °C | -5.6 °C |
| MLKSALLLGAAAVSVQSASIPTIPANLEPRQIRSLCELYGYWSGNGYELLNNLWGKDTATSGWQCTYLDGTNNGGIQWSTAWEWQGAPDNVKSYPYVGKQIQRGRKISDINSMRTSVSWTYDRTDIRANVAYDVFTARDPDHPNWGGDYELMIWLARYGGIYPIGTFHSQVNLAGRTWDLWTGYNGNMRVYSFLPPSGDIRDFSCDIKDFFNYLERNHGYPAREQNLIVYQVGTECFTGGPARFTVRDFRADLW [C246V] |  |  | 69.5 °C | 0.8 °C |

From FireProtDB (doi:10.1110/ps.03220403)
